What all share (assay): cell-based or functional assay
The target of test [1] is S蛋白, SARS-CoV-2 BQ.1.1 (SARS-CoV-2 BQ.1.1).
The target of test [2] is S蛋白, SARS-CoV-2 BA.1 (SARS-CoV-2 BA.1).
The target of test [3] is S蛋白, SARS-CoV-2 BA.2 (SARS-CoV-2 BA.2).
In test [4] the target is S蛋白, SARS-CoV-2 BA.1.1 (SARS-CoV-2 BA.1.1).
Test [5] deals with S蛋白, SARS-CoV-2 XBB (SARS-CoV-2 XBB).
For test [6], the target named is T1, S蛋白, SARS-CoV-2 BA.2.75 (SARS-CoV-2 BA.2.75).
Test [7] has as its target T2, S蛋白, SARS-CoV-2 XBB.1.5 (SARS-CoV-2 XBB.1.5).
Test [8] deals with S蛋白, SARS-CoV-2 BQ.1 (SARS-CoV-2 BQ.1).
In test [9] the target is S蛋白, SARS-CoV-2 XBB.1.16 (SARS-CoV-2 XBB.1.16).
Test [10] has as its target S蛋白, SARS-CoV-2 BA.3 (SARS-CoV-2 BA.3).
The target of test [11] is S蛋白, SARS-CoV-2 BF.7 (SARS-CoV-2 BF.7).
Test [12] has as its target S蛋白, SARS-CoV-2 BA.4/5 (SARS-CoV-2 BA.4/5).
In test [13] the target is S蛋白, SARS-CoV-2 BQ.1.1 (SARS-CoV-2 BQ.1.1). This is another data set of the same source.
The target of test [14] is S蛋白, SARS-CoV-2 BA.1 (SARS-CoV-2 BA.1). The source holds these as a separate data set.
For test [15], the target named is S蛋白, SARS-CoV-2 XBB (SARS-CoV-2 XBB). The source holds these as a separate data set.
Test [16] deals with T1, S蛋白, SARS-CoV-2 BA.2.75. The source holds these as a separate data set.
The target in test [17] is T2, S蛋白, SARS-CoV-2 XBB.1.5. The source holds these as a separate data set.
For test [18], the target named is S蛋白, SARS-CoV-2 Delta (SARS-CoV-2 Delta).
For test [19], the target named is S蛋白, SARS-CoV-2 BQ.1 (SARS-CoV-2 BQ.1). The source holds these as a separate data set.
Test [20] addresses S蛋白, SARS-CoV-2 BF.7 (SARS-CoV-2 BF.7). This is another data set of the same source.
Test [21] has as its target S蛋白, SARS-CoV-2 BA.4/5 (SARS-CoV-2 BA.4/5). This is another data set of the same source.
Test [22] deals with S蛋白, SARS-CoV-2 EG.5突变株 (SARS-CoV-2 EG.5).

This note sets out measurements from patent CN117603358A (INST MICROBIOLOGY CAS; 3SBIO GROUP; SHANXI ADVANCED …, dated 2024).

Bounds are passed on as bounds.

B1: L4.65单抗 (antibody, V domains shown)
VH: QITLKESGPTLVKPTQTLTLTCTFSGFSLSTSGVGVAWIRQPPGKALEWLALIYWDNDKRSSPSLNNRLTITKDTSKNQVVLTMTNMDPEDTATYYCAHFFSHYDSSNYYYGSWFDPWGQGTLVTVSS
VL: EIVLTQSPGTLSLSPGERATLSCRASQSFDSRYLGWYQQKSGQAPRLLIYGASSRATGIPDRFSGSGSGTDFTLTISRLEPEDFAVYYCQQFGDSPFTFGQGTKLEIKR
Consider B1, for which the “假病毒中和效果 IC50” value in test [1] was 4.58 µg/mL; in test [2], 0.000394 µg/mL; in test [3], 0.00039 µg/mL; in test [4], 0.00028 µg/mL; in test [5] it was 0.00335 µg/mL; in [6], 0.00194 µg/mL. Also, the “假病毒中和效果 IC50” value in test [7] turned out to be 0.0137 µg/mL; in test [8], 2.09 µg/mL; in test [9], 0.0103 µg/mL; in test [10], 0.00044 µg/mL; in [11], 0.000446 µg/mL; in test [12], 0.000377 µg/mL. For the same molecule, the “假病毒中和效果 IC50” value in [22] stood at 0.0521 µg/mL. In addition, the “假病毒中和活性 IC50” value was over 2 µg/mL in test [13]; 0.00135 µg/mL in test [14]; 0.0214 µg/mL in [15]; 0.0112 µg/mL in [16]; 0.0541 µg/mL in test [17]; 0.00252 µg/mL in test [18]. Besides, the “假病毒中和活性 IC50” value in test [19] was over 2 µg/mL; in test [20], 0.00212 µg/mL; in [21] it was 0.00138 µg/mL.

B2: CoV56单抗 (antibody, V domains shown)
VH: EVQLVESGGGVVQPGGSLRLSCAVSGFTFDDYAMHWVRQAPGKGLDWVSLISGDGSYTYYADSVKGRFTISRDSSKNSLYLQMNSLRTEDTALYYCAKAQTPTLWWLQDAFDIWGQGTMVTVSS
VL: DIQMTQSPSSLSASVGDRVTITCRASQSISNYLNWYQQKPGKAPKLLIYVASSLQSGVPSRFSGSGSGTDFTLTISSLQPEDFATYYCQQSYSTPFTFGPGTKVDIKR
Turning to B2, the “假病毒中和效果 IC50” value in [1] was determined as 15.9 µg/mL; in test [2], 14.8 µg/mL; in test [3], 8.32 µg/mL; in test [4] it was 10.8 µg/mL; in test [5], 15.9 µg/mL; in [6], 58.8 µg/mL. In addition, the “假病毒中和效果 IC50” value in test [7] was 11.8 µg/mL; in test [8], 19.6 µg/mL; in test [9] it was 21.7 µg/mL; in [10], 18.5 µg/mL; in [11], 11.7 µg/mL; in [12], 7.53 µg/mL. Moreover, the “假病毒中和效果 IC50” value in [22] stood at 13.6 µg/mL. Further, the “假病毒中和活性 IC50” value in test [13], in [14], in [15], in test [16], in [17] and in [18] was over 2 µg/mL in each case. The “假病毒中和活性 IC50” value in test [19], in test [20] and in [21] was over 2 µg/mL in each case.
